This is an account of results in publication PMC2114473.

Holding throughout (test): radioligand binding
Test [1] has as its target type III collagen, pepsinized.
The target in test [2] is type II collagen, pepsinized.
Test [3] concerns the target type I collagen, pepsinized.

As to “human thrombospondin (TSP) (from UniProt P07996 19-1170) (natural protein)”, the cpm bound was found to be 4940 cpm in test [1], 5320 cpm in test [2] and 5320 cpm in test [3].
